The values that follow come from patent US20180036395A1, “DOSAGE AND ADMINISTRATION OF MONOSPECIFIC AND BISPECIFIC ANTI-IGR-1R AND ANTI-ERBB3 ANTIBODIES” (Merrimack Pharmaceuticals, Inc., priority 2012, published 2018).

The test system of this assay is non-small cell lung cancer (NSCLC). The experiment in a line: Treatment of patients with non-small cell lung cancer. Format: in vivo, human. As to conditions: everolimus + P4-G1-M1.3. The protocol: P4-G1-M1.3 is formulated in 20 mM histidine, 100 mM arginine-HCl, 3% sucrose, at pH 5.5 supplemented with 0.002-0.02% of Tween® 80 at concentration range 5-15 mg/mL. P4-G1-M1.3 is administered to patients at 6 mg/kg, 12 mg/kg, 20 mg/kg, 30 mg/kg, 40 mg/kg, 50 mg/kg or 60 mg/kg q7d, ql4d, q21d, or q28d with a loading dose of 12 mg/kg, 20 mg/kg, 40 mg/kg, 40 mg/kg or 60 mg/kg Everolimus is administered to patients at 2.5 mg, 5 mg, or 10 mg orally once a day or once every other day.
Patients with non-small cell lung cancer (NSCLC) are treated by administration of either monotherapy with an effective amount of everolimus or an effective amount of P4-G1-M1.3, or with combination therapy comprising or consisting of administration of both the effective amount of everolimus and the effective amount of P4-G1-M1.3. P4-G1-M1.3 and everolimus are prepared and dosed as described in Example 1.

B1: P4-G1-M1.3: anti-IGF-1R+anti-ErbB3 polyvalent bispecific antibody, IgG1-(scFv)2 (SEQ ID NO:148 and SEQ ID NO:149) (protein)
chain 1: EVQLLQSGGGLVQPGGSLRLSCAASGFLFSSYPMHWVRQAPGKGLEWVGSISPSGGATPYADSVKGRFTISRDNSKNTLYLQMNSLRPEDTAVYYCAKDFYNILTGNAFDKWGQGTSVTVSSASTGGGGSGGGGSGGGGSGGGGSDIQLTQSPSSLSASLGDRVTITCRASQGISSYLAWYQQKPGKAPKLLIYAGSTPQSGVPSRFSGSGSGTEFTLTISSLQPEDSGTYYCQQYWTWPLTFGGGTKVEIKRT
chain 2: EVQLVESGGGLVQPGRSLRLSCAASGFTFDDYAMHWVRQAPGKGLEWVSGISWNSGSTGYADSVKGRFTISRDNAKNSLYLQMNSLRAEDTALYYCARDLGYNQWLEGFDYWGQGTLVTVSSASTGGGGSGGGGSGGGGSGGGGSSSELTQDPAVSVALGQTVRITCQGDSLRSYYASWYQQKPGQAPVLVIYGKNNRPSGIPDRFSGSSSGNTASLTITGAQAEDEADYYCMSRDHPGNQWVFGGGTKVTVLG
modifications: Synthetic polypeptide:Anti-IGF-1R scFvs M76; Synthetic polypeptide:Anti-ErbB3 scFvs P6L
Turning to B1, the treatment outcome is listed as “combinatorially enhanced outcome”.
